The assay addresses poliovirus 3AsolBC protein (poliovirus). As to the kind of experiment: SEC.

The source of these data is PMC10590986.

pKd: −log10 of the molar value. Values joined by “and” are separate entries in the source; they are usually repeats but may differ in a detail not shown here. Equal values may be shown once.

As usually defined, the pKd is the negative decadic logarithm of the Kd, by convention in mol/L.

As for “poliovirus 3AsolBC protein (natural protein)”, the pKd is 4.22 to 4.70; the percent of the total absorbance in the leading-edge (dimer) peak is 10% and 30%.
